# Residue numbers refer to the chain shown, from its start. Names and notes keep the numbering of the source.
# B1: ICOSL ECD N52H/N57Y/Q100P - G4S - Fc C220S/E233P/L234V/L235A/G236del/S267K (Fc fusion)
# chain: DTQEKEVRAMVGSDVELSCACPEGSRFDLNDVYVYWQTSESKTVVTYHIPQHSSLEYVDSRYRNRALMSPAGMLRGDFSLRLFNVTPQDEQKFHCLVLSPSLGFQEVLSVEVTLHVAANFSVPVVSAPHSPSQDELTFTCTSINGYPRPNVYWINKTDNSLLDQALQNDTVFLNMRGLYDVVSVLRIARTPSVNIGCCIENVLLQQNLTVGSQTGNDIGERDKITENPVSTGEKNAATGGGGSEPKSSDKTHTCPPCPAPPVAGPSVFLFPPKPKDTLMISRTPEVTCVVVDVKHEDPEVKFNWYVDGVEVHNAKTKPREEQYNSTYRVVSVLTVLHQDWLNGKEYKCKVSNKALPAPIEKTISKAKGQPREPQVYTLPPSREEMTKNQVSLTCLVKGFYPSDIAVEWESNGQPENNYKTTPPVLDSDGSFFLYSKLTVDKSRWQQGNVFSCSVMHEALHNHYTQKSLSLSPGK
# B2: ICOSL ECD N52H/N57Y/Q100P - no linker - Fc C220S/L234A/L235E/G237A (Fc fusion)
# chain: DTQEKEVRAMVGSDVELSCACPEGSRFDLNDVYVYWQTSESKTVVTYHIPQHSSLEYVDSRYRNRALMSPAGMLRGDFSLRLFNVTPQDEQKFHCLVLSPSLGFQEVLSVEVTLHVAANFSVPVVSAPHSPSQDELTFTCTSINGYPRPNVYWINKTDNSLLDQALQNDTVFLNMRGLYDVVSVLRIARTPSVNIGCCIENVLLQQNLTVGSQTGNDIGERDKITENPVSTGEKNAATEPKSSDKTHTCPPCPAPEAEGAPSVFLFPPKPKDTLMISRTPEVTCVVVDVSHEDPEVKFNWYVDGVEVHNAKTKPREEQYNSTYRVVSVLTVLHQDWLNGKEYKCKVSNKALPAPIEKTISKAKGQPREPQVYTLPPSREEMTKNQVSLTCLVKGFYPSDIAVEWESNGQPENNYKTTPPVLDSDGSFFLYSKLTVDKSRWQQGNVFSCSVMHEALHNHYTQKSLSLSPGK
# notes: direct fusion, linker 'none'
# B3: ICOSL ECD N52H/N57Y/Q100R/F172S - no linker - Fc C220S/L234A/L235E/G237A (Fc fusion)
# chain: B2 chain with P100R, F172S
# notes: direct fusion, linker 'none'
# B4: ICOSL ECD N52H/N57Y/Q100P - no linker - Fc C220S/E233P/L234V/L235A/G236del/S267K (Fc fusion)
# chain: DTQEKEVRAMVGSDVELSCACPEGSRFDLNDVYVYWQTSESKTVVTYHIPQHSSLEYVDSRYRNRALMSPAGMLRGDFSLRLFNVTPQDEQKFHCLVLSPSLGFQEVLSVEVTLHVAANFSVPVVSAPHSPSQDELTFTCTSINGYPRPNVYWINKTDNSLLDQALQNDTVFLNMRGLYDVVSVLRIARTPSVNIGCCIENVLLQQNLTVGSQTGNDIGERDKITENPVSTGEKNAATEPKSSDKTHTCPPCPAPPVAGPSVFLFPPKPKDTLMISRTPEVTCVVVDVKHEDPEVKFNWYVDGVEVHNAKTKPREEQYNSTYRVVSVLTVLHQDWLNGKEYKCKVSNKALPAPIEKTISKAKGQPREPQVYTLPPSREEMTKNQVSLTCLVKGFYPSDIAVEWESNGQPENNYKTTPPVLDSDGSFFLYSKLTVDKSRWQQGNVFSCSVMHEALHNHYTQKSLSLSPGK
# notes: direct fusion, linker 'None'
# B5: ICOSL ECD Truncation #7 with N52H/N57Y/Q100R/C198R and E90K/E111G, Fc fusion (Fc fusion)
# chain: DTQEKEVRAMVGSDVELSCACPEGSRFDLNDVYVYWQTSESKTVVTYHIPQHSSLEYVDSRYRNRALMSPAGMLRGDFSLRLFNVTPQDKQKFHCLVLSRSLGFQEVLSVGVTLHVAANFSVPVVSAPHSPSQDELTFTCTSINGYPRPNVYWINKTDNSLLDQALQNDTVFLNMRGLYDVVSVLRIARTPSVNIGCRIENGGGGSGGGGSEPKSSDKTHTCPPCPAPEAEGAPSVFLFPPKPKDTLMISRTPEVTCVVVDVSHEDPEVKFNWYVDGVEVHNAKTKPREEQYNSTYRVVSVLTVLHQDWLNGKEYKCKVSNKALPAPIEKTISKAKGQPREPQVYTLPPSREEMTKNQVSLTCLVKGFYPSDIAVEWESNGQPENNYKTTPPVLDSDGSFFLYSKLTVDKSRWQQGNVFSCSVMHEALHNHYTQKSLSLSPG
# notes: not restated for the C198R set
# B6: ICOSL ECD Truncation #7 with N52H/N57Y/Q100R/F172S and F83S, Fc fusion (Fc fusion)
# chain: B5 chain with F83S, K90E, G111E, F172S, R198C
# B7: ICOSL ECD Truncation #6 with N52H/N57Y/Q100R/F172S, Fc fusion (Fc fusion)
# chain: DTQEKEVRAMVGSDVELSCACPEGSRFDLNDVYVYWQTSESKTVVTYHIPQHSSLEYVDSRYRNRALMSPAGMLRGDFSLRLFNVTPQDEQKFHCLVLSRSLGFQEVLSVEVTLHVAANFSVPVVSAPHSPSQDELTFTCTSINGYPRPNVYWINKTDNSLLDQALQNDTVSLNMRGLYDVVSVLRIARTPSVNIGCCIENVLLGGGGSGGGGSEPKSSDKTHTCPPCPAPEAEGAPSVFLFPPKPKDTLMISRTPEVTCVVVDVSHEDPEVKFNWYVDGVEVHNAKTKPREEQYNSTYRVVSVLTVLHQDWLNGKEYKCKVSNKALPAPIEKTISKAKGQPREPQVYTLPPSREEMTKNQVSLTCLVKGFYPSDIAVEWESNGQPENNYKTTPPVLDSDGSFFLYSKLTVDKSRWQQGNVFSCSVMHEALHNHYTQKSLSLSPG
# B8: ICOSL ECD Truncation #6 with N52H/N57Y/Q100R/C198R, Fc fusion (Fc fusion)
# chain: B7 chain with S172F, C198R
# notes: as for B5
# B9: ICOSL ECD Truncation #4 with N52H/N57Y/Q100R/F172S and E200G, Fc fusion (Fc fusion)
# chain: DTQEKEVRAMVGSDVELSCACPEGSRFDLNDVYVYWQTSESKTVVTYHIPQHSSLEYVDSRYRNRALMSPAGMLRGDFSLRLFNVTPQDEQKFHCLVLSRSLGFQEVLSVEVTLHVAANFSVPVVSAPHSPSQDELTFTCTSINGYPRPNVYWINKTDNSLLDQALQNDTVSLNMRGLYDVVSVLRIARTPSVNIGCCIGNVLLQQNGGGGSGGGGSEPKSSDKTHTCPPCPAPEAEGAPSVFLFPPKPKDTLMISRTPEVTCVVVDVSHEDPEVKFNWYVDGVEVHNAKTKPREEQYNSTYRVVSVLTVLHQDWLNGKEYKCKVSNKALPAPIEKTISKAKGQPREPQVYTLPPSREEMTKNQVSLTCLVKGFYPSDIAVEWESNGQPENNYKTTPPVLDSDGSFFLYSKLTVDKSRWQQGNVFSCSVMHEALHNHYTQKSLSLSPG
# B10: ICOSL ECD Truncation #8 with N207G/L208G and N52H/N57Y/Q100R/F172S, Fc fusion (Fc fusion)
# chain: DTQEKEVRAMVGSDVELSCACPEGSRFDLNDVYVYWQTSESKTVVTYHIPQHSSLEYVDSRYRNRALMSPAGMLRGDFSLRLFNVTPQDEQKFHCLVLSRSLGFQEVLSVEVTLHVAANFSVPVVSAPHSPSQDELTFTCTSINGYPRPNVYWINKTDNSLLDQALQNDTVSLNMRGLYDVVSVLRIARTPSVNIGCCIENVLLQQGGTGGGGSGGGGSEPKSSDKTHTCPPCPAPEAEGAPSVFLFPPKPKDTLMISRTPEVTCVVVDVSHEDPEVKFNWYVDGVEVHNAKTKPREEQYNSTYRVVSVLTVLHQDWLNGKEYKCKVSNKALPAPIEKTISKAKGQPREPQVYTLPPSREEMTKNQVSLTCLVKGFYPSDIAVEWESNGQPENNYKTTPPVLDSDGSFFLYSKLTVDKSRWQQGNVFSCSVMHEALHNHYTQKSLSLSPG
# B11: ICOSL IgV with N52H/N57Y/Q100R and H48R/S54P, Fc fusion (Fc fusion)
# chain: DTQEKEVRAMVGSDVELSCACPEGSRFDLNDVYVYWQTSESKTVVTYRIPQHSPLEYVDSRYRNRALMSPAGMLRGDFSLRLFNVTPQDEQKFHCLVLSRSLGFQEVLSVEVTLHVAANFSVGGGGSGGGGSEPKSSDKTHTCPPCPAPEAEGAPSVFLFPPKPKDTLMISRTPEVTCVVVDVSHEDPEVKFNWYVDGVEVHNAKTKPREEQYNSTYRVVSVLTVLHQDWLNGKEYKCKVSNKALPAPIEKTISKAKGQPREPQVYTLPPSREEMTKNQVSLTCLVKGFYPSDIAVEWESNGQPENNYKTTPPVLDSDGSFFLYSKLTVDKSRWQQGNVFSCSVMHEALHNHYTQKSLSLSPG
# B12: ICOSL ECD with N52H/N57Y/Q100R/C198R, Fc fusion (Table 30C) (Fc fusion)
# chain: DTQEKEVRAMVGSDVELSCACPEGSRFDLNDVYVYWQTSESKTVVTYHIPQHSSLEYVDSRYRNRALMSPAGMLRGDFSLRLFNVTPQDEQKFHCLVLSRSLGFQEVLSVEVTLHVAANFSVPVVSAPHSPSQDELTFTCTSINGYPRPNVYWINKTDNSLLDQALQNDTVFLNMRGLYDVVSVLRIARTPSVNIGCRIENVLLQQNLTVGSQTGNDIGERDKITENPVSTGEKNAATGGGGSGGGGSEPKSSDKTHTCPPCPAPEAEGAPSVFLFPPKPKDTLMISRTPEVTCVVVDVSHEDPEVKFNWYVDGVEVHNAKTKPREEQYNSTYRVVSVLTVLHQDWLNGKEYKCKVSNKALPAPIEKTISKAKGQPREPQVYTLPPSREEMTKNQVSLTCLVKGFYPSDIAVEWESNGQPENNYKTTPPVLDSDGSFFLYSKLTVDKSRWQQGNVFSCSVMHEALHNHYTQKSLSLSPG
# notes: as for B5
# B13: ICOSL ECD Truncation #5 with N52H/N57Y/Q100R/C198R, Fc fusion (Fc fusion)
# chain: DTQEKEVRAMVGSDVELSCACPEGSRFDLNDVYVYWQTSESKTVVTYHIPQHSSLEYVDSRYRNRALMSPAGMLRGDFSLRLFNVTPQDEQKFHCLVLSRSLGFQEVLSVEVTLHVAANFSVPVVSAPHSPSQDELTFTCTSINGYPRPNVYWINKTDNSLLDQALQNDTVFLNMRGLYDVVSVLRIARTPSVNIGCRIENVLLQQGGGGSGGGGSEPKSSDKTHTCPPCPAPEAEGAPSVFLFPPKPKDTLMISRTPEVTCVVVDVSHEDPEVKFNWYVDGVEVHNAKTKPREEQYNSTYRVVSVLTVLHQDWLNGKEYKCKVSNKALPAPIEKTISKAKGQPREPQVYTLPPSREEMTKNQVSLTCLVKGFYPSDIAVEWESNGQPENNYKTTPPVLDSDGSFFLYSKLTVDKSRWQQGNVFSCSVMHEALHNHYTQKSLSLSPG
# notes: as for B5
# Target: T1, human CTLA-4 (human, UniProt P16410 36-223)
# T1 construct: whole, on cells
# T1 sequence (P16410 36-223): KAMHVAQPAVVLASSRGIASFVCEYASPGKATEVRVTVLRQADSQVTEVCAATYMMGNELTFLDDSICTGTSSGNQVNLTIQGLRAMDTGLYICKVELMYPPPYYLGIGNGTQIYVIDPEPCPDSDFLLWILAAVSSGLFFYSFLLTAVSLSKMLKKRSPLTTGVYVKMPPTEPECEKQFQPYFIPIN
# Test: flow cytometry, transfected Expi293 cells; also: test concentration or dose not given here
row,Binder,MFI
1,B1,188000 MFI

# Target: T2, human ICOS (human, UniProt Q9Y6W8 21-199)
# T2 construct: whole, on cells
# T2 sequence (looked up): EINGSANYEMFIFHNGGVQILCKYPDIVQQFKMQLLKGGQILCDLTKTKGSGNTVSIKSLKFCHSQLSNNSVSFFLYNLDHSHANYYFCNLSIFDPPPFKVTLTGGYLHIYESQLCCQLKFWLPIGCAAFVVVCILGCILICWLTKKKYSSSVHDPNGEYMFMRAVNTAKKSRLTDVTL
# Test: flow cytometry, transfected Expi293 cells; also: test concentration or dose not given here
row,Binder,MFI
1,B2,97700 MFI
2,B3,106000 MFI
3,B1,93400 MFI
4,B4,98500 MFI

# Target: T3, human CD28 (human, UniProt P10747 19-220)
# T3 construct: whole, on cells
# Test: flow cytometry, transfected cells; protein from CHO
Binder,MFI,MFI ratio to WT
B5,38900 MFI,22.5 fold
B6,88300 MFI,51.1 fold
B7,91300 MFI,52.8 fold
B8,84600 MFI,49 fold
B9,80600 MFI,46.6 fold
B10,108000 MFI,62.4 fold
B11,75300 MFI,43.6 fold
B12,59200 MFI,34.3 fold
B13,86300 MFI,50 fold

# Target: T1, human CTLA-4
# Test: as above
Binder,MFI,MFI ratio to WT
B5,83700 MFI,11 fold
B6,207000 MFI,27.3 fold
B7,240000 MFI,31.6 fold
B8,236000 MFI,31.1 fold
B9,320000 MFI,42.3 fold
B10,308000 MFI,40.7 fold
B11,322000 MFI,42.4 fold
B12,133000 MFI,17.5 fold
B13,216000 MFI,28.5 fold

# Target: T2, human ICOS
# Test: as above
Binder,MFI,MFI ratio to WT
B5,54600 MFI,0.5 fold
B6,106000 MFI,1.1 fold
B7,90100 MFI,0.9 fold
B8,91400 MFI,0.9 fold
B9,108000 MFI,1.1 fold
B10,133000 MFI,1.3 fold
B11,143000 MFI,1.4 fold
B12,139000 MFI,1.4 fold
B13,110000 MFI,1.1 fold

# From patent US20230235012A1 (ALPINE IMMUNE SCIENCES, published 2023)
